The record followed here is the supplement of paper PMC10567573.

First the molecules themselves.
B1: CDC14A (parent)
chain: LNLAMVYRYCCKLNKKLKSYSLSR
B2: ADAMTS4 (parent)
chain: HVDPEEPWSPCSARFITDFLDNGY
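Also: lentivirally expressed fusions sorted by FACS into six bins by GFP to DsRed ratio, PSI derived from sequencing read proportions per bin multiplied by bin number.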

In one series the parent is B1. The series can be described thus: protein stability index of a GFP-peptide fusion (GPS, HEK-293T) (PSI 1-6); higher = more stable. To be noted: c terminus: a fixed tail appended.
As for LNHAMVYRYCCKLNKKLKSYSLSR [L3H], the protein stability index was 1.8.

As for LNFAMVYRYCCKLNKKLKSYSLSR [L3F], the protein stability index amounted to 3.38. The same measure, in the same setting: the value for LNIAMVYRYCCKLNKKLKSYSLSR [L3I] was 2.02; that for LNMAMVYRYCCKLNKKLKSYSLSR [L3M] was 2.88. On the same count and under the same terms, the value for LNCAMVYRYCCKLNKKLKSYSLSR [L3C] was 4. Still for that read-out and setting: then LNDAMVYRYCCKLNKKLKSYSLSR [L3D], with 2.29. For LNEAMVYRYCCKLNKKLKSYSLSR [L3E], the protein stability index is 2.32. As for LNKAMVYRYCCKLNKKLKSYSLSR [L3K], the protein stability index amounted to 3.48. Take LNGAMVYRYCCKLNKKLKSYSLSR [L3G]: the protein stability index turned out to be 4.11. On the same count and under the same terms, then LNNAMVYRYCCKLNKKLKSYSLSR [L3N], with 1.89. As for LNAAMVYRYCCKLNKKLKSYSLSR [L3A], the protein stability index amounted to 2.74. Same read-out and setting: the value for RNLAMVYRYCCKLNKKLKSYSLSR [L1R] was 2.77; that for SNLAMVYRYCCKLNKKLKSYSLSR [L1S] was 3.71; that for CNLAMVYRYCCKLNKKLKSYSLSR [L1C] was 3.72.

Consider DNLAMVYRYCCKLNKKLKSYSLSR [L1D], for which the protein stability index worked out at 3.11. Same read-out and setting: then FNLAMVYRYCCKLNKKLKSYSLSR [L1F], with 2.51. On to ANLAMVYRYCCKLNKKLKSYSLSR [L1A], for which the protein stability index came to 2.44. The same measure, in the same setting: then INLAMVYRYCCKLNKKLKSYSLSR [L1I], with 3.18. The same measure, in the same setting: then HNLAMVYRYCCKLNKKLKSYSLSR [L1H], with 2.26.

For MNLAMVYRYCCKLNKKLKSYSLSR [L1M], the protein stability index is 3.23.

In the case of KNLAMVYRYCCKLNKKLKSYSLSR [L1K], the protein stability index was found to be 2.73. Same read-out and setting: then YNLAMVYRYCCKLNKKLKSYSLSR [L1Y], with 2.49; and ENLAMVYRYCCKLNKKLKSYSLSR [L1E], with 3.44.

As for TNLAMVYRYCCKLNKKLKSYSLSR [L1T], the protein stability index stood at 2.3. Same read-out and setting: then LFLAMVYRYCCKLNKKLKSYSLSR [N2F], with 1.04; and LLLAMVYRYCCKLNKKLKSYSLSR [N2L], with 2.17.

On to LYLAMVYRYCCKLNKKLKSYSLSR [N2Y], for which the protein stability index is 2.64. Still for that read-out and setting: the value for LTLAMVYRYCCKLNKKLKSYSLSR [N2T] was 2.24; that for LVLAMVYRYCCKLNKKLKSYSLSR [N2V] was 1.82; that for LALAMVYRYCCKLNKKLKSYSLSR [N2A] was 3.34.

As for LCLAMVYRYCCKLNKKLKSYSLSR [N2C], the protein stability index is 3.28.

Consider LILAMVYRYCCKLNKKLKSYSLSR [N2I], for which the protein stability index stood at 2.14. The same measure, in the same setting: then LELAMVYRYCCKLNKKLKSYSLSR [N2E], with 3.15. Same read-out and setting: then LPLAMVYRYCCKLNKKLKSYSLSR [N2P], with 3.42. Still for that read-out and setting: the value for LWLAMVYRYCCKLNKKLKSYSLSR [N2W] was 3.17; that for LRLAMVYRYCCKLNKKLKSYSLSR [N2R] was 2.39; that for LMLAMVYRYCCKLNKKLKSYSLSR [N2M] was 3.27.

Variants of B2 are the subject of a further series. Described as above. To be noted: c terminus: a fixed tail appended.
As to HVDPEEPWSPCSARFIRDFLDNGY [T17R], the protein stability index stood at 2.03. Still for that read-out and setting: then HVDPEEPWSPCSARFICDFLDNGY [T17C], with 2.04. Same read-out and setting: the value for HVDPEEPWSPCSARFIPDFLDNGY [T17P] was 1.88; that for HVDPEEPWSPCSARFIFDFLDNGY [T17F] was 1.41.

As to HVDPEEPWSPCSARFILDFLDNGY [T17L], the protein stability index was 2.39. Same read-out and setting: then HVDPEEPWSPCSARFIMDFLDNGY [T17M], with 2.38; and HVDPEEPWSPCSARFIQDFLDNGY [T17Q], with 1.77; and HVDPEEPWSPCSARFIVDFLDNGY [T17V], with 1.83. As for HVDPEEPWSPCSARFIIDFLDNGY [T17I], the protein stability index is 2.13. Same read-out and setting: then HVDPEEPWSPCSARFIHDFLDNGY [T17H], with 2.05; and HVDPEEPWSPCSARFINDFLDNGY [T17N], with 1.62. Same read-out and setting: then HVDPEEPWSPCSARFIDDFLDNGY [T17D], with 1.81. As to HVDPEEPWSPCSARFIWDFLDNGY [T17W], the protein stability index was found to be 1.86. Still for that read-out and setting: the value for HVDPEEPWSPCSARFISDFLDNGY [T17S] was 1.88. On the same count and under the same terms, the value for HVDPEEPWSPCSARFIKDFLDNGY [T17K] was 1.71. Same read-out and setting: then HVDPEEPWSPCSARFIGDFLDNGY [T17G], with 1.71; and HVDPEEPWSPCSARFIYDFLDNGY [T17Y], with 1.83; and HVDPEEPWSPCSARFIEDFLDNGY [T17E], with 1.57. As for HVDPEEPWSPCSARFITDFLDEGY [N22E], the protein stability index turned out to be 2.19. As to HVDPEEPWSPCSARFITDFLDLGY [N22L], the protein stability index stood at 1.71. Take HVDPEEPWSPCSARFITDFLDHGY [N22H]: the protein stability index was determined as 1.62.

With HVDPEEPWSPCSARFITDFLDMGY [N22M], the protein stability index was determined as 1.92. Still for that read-out and setting: the value for HVDPEEPWSPCSARFITDFLDAGY [N22A] was 1.8; that for HVDPEEPWSPCSARFITDFLDQGY [N22Q] was 2.09. Same read-out and setting: then HVDPEEPWSPCSARFITDFLDWGY [N22W], with 1.3; and HVDPEEPWSPCSARFITDFLDPGY [N22P], with 2.09. For HVDPEEPWSPCSARFITDFLDFGY [N22F], the protein stability index was 1.85. For the variant HVDPEEPWSPCSARFITDFLDKGY [N22K], the protein stability index was determined as 1.57. The same measure, in the same setting: the value for HVDPEEPWSPCSARFITDFLDRGY [N22R] was 1.7; that for HVDPEEPWSPCSARFITDFLDCGY [N22C] was 2.35; that for HVDPEEPWSPCSARFITDFLDSGY [N22S] was 1.47. The same measure, in the same setting: then HVDPEEPWSPCSARFITDFLDGGY [N22G], with 2.07.

For HVDPEEPWSPCSARFITDFLDYGY [N22Y], the protein stability index amounted to 1.78. The same measure, in the same setting: the value for HVDPEEPWSPCSARFITDFLDDGY [N22D] was 1.88; that for HVDPEEPWSPCSARFITDFLDTGY [N22T] was 1.46. The same measure, in the same setting: the value for HVDPEEPWSPCSARFITDFLDVGY [N22V] was 1.94. On the same count and under the same terms, the value for HVDPEEPWSPCSARFITDFLDIGY [N22I] was 2.52; that for HVDPEEPWSPCSARFITDTLDNGY [F19T] was 2.02. In the case of HVDPEEPWSPCSARFITDLLDNGY [F19L], the protein stability index is 1.64. With HVDPEEPWSPCSARFITDELDNGY [F19E], the protein stability index came out at 1.96. On the same count and under the same terms, the value for HVDPEEPWSPCSARFITDRLDNGY [F19R] was 1.65.

With HVDPEEPWSPCSARFITDYLDNGY [F19Y], the protein stability index stood at 1.58. The same measure, in the same setting: the value for HVDPEEPWSPCSARFITDILDNGY [F19I] was 1.8; that for HVDPEEPWSPCSARFITDGLDNGY [F19G] was 2.06; that for HVDPEEPWSPCSARFITDPLDNGY [F19P] was 3.

Turning to HVDPEEPWSPCSARFITDMLDNGY [F19M], the protein stability index came to 1.89. Take HVDPEEPWSPCSARFITDALDNGY [F19A]: the protein stability index was found to be 1.86.

Regarding HVDPEEPWSPCSARFITDQLDNGY [F19Q], the protein stability index came to 2.21. The same measure, in the same setting: then HVDPEEPWSPCSARFITDWLDNGY [F19W], with 1.93; and HVDPEEPWSPCSARFITDDLDNGY [F19D], with 2.54.

Turning to HVDPEEPWSPCSARFITDHLDNGY [F19H], the protein stability index stood at 2.29. Still for that read-out and setting: then HVDPEEPWSPCSARFITDVLDNGY [F19V], with 1.78; and HVDPEEPWSPCSARFITDNLDNGY [F19N], with 2.05; and HVDPEEPWSPCSARFITDKLDNGY [F19K], with 2.16.

Regarding HVDPEEPWSPCSARFITDCLDNGY [F19C], the protein stability index worked out at 1.5. On the same count and under the same terms, the value for HVDPEEPWSPCSARFITDSLDNGY [F19S] was 2.17. Same read-out and setting: then HVDPEEPWSPCSARFITLFLDNGY [D18L], with 2.6.
